In the DeepSol protein solubility set:

Assay: soluble on expression in E. coli; label from the status in PepcDB or PDB records

Sequence | soluble on expression in E. coli
MGLIPPKWLERMVEAYRDPSLERAVYGEVLTRSDIERLLSETPLHPMAAAADYYARVIKKGVGSYIVNIYLAYTNVCVTRCTFCDFYVPPERRSSGYTHPPEHLGRVAGLARKRLGVREVHMVGGNDPELPLEYYEEAIREIKRVAPGVVLKAFTAEEIGFIAKATGNTPKEVLARFREAGLDALPGGGAEVLSEEVRKRIAPLKISSDEYLEIHRLAHSMGIRSNITLLYAHIEEPRHVAEHLYRIRRLQEETGGFISFIPIRFNPGKTPLSRHPEYVKKGDRGGLYDLRIVAASRLALLGAIDNIMAYWVSMGEKLAQAALSHGANDIGGTFYNESVISAASSLRKRKGMSPARLVFNIATAGWTPMERDTFYNYYPPRAEPPRLPWMQG | not soluble
MGLLPTDRWLEEDEGDPLRLCARLAPLFGKMPAREIYSYLRLYGMYRSTRQAERLLPEMKERRLWERLGRLYERQRGIWKGPDVPVFLLPADDENRKLVREFQGKGGVAFADKLFFFLLPDHCDEEIAALVAHEYNHVCRLKQLPNEGEDATLLDAVVMEGLAEHAVAETVGAEQCAGWTKYYTDREMERFWRRYIVPNQHLPVSHPHTSRILYGLGWHPKMGGYAVGYAIVRRCLERGCSLAQLMTMEAKDIAELAGFSGKQQGAS | not soluble
MGLNIGDLLGSTPAKDQGCSRTCESQFCTIAPLLRYGKYCGILYSGCPGERPCDALDACCMVHDHCVDTHNDDYLNTMCNENLLSCIDRVSGATFPGNKCNVGQTASVIRGVIETAVFAGKILHKRDDGQ | soluble
MGLPCYHMQEVIMNKANKGHLDFWRKVANSPPGSQHDWNRVFANYTATVDNPGCCVWKELLAAYPDAKVLLTLHPRGAEAWYESTIDTIYFTENVWQFKILEWLTPFGWKFGDMSRKLIWGRTLDGVMNDRAKAVARYNTYVEQVKAAVPPHKLLVYKVTEGWAPLCDFLGLEHHHHHH | not soluble
MGLQELDPLAQLSLPPGFRFYPTDEELMVEYLCRKAAGHDFSLQLIAEIDLYKFDPWVLPSKALFGEKEWYFFSPRDRKYPNGSRPNRVAGSGYWKATGTDKVISTEGRRVGIKKALVFYIGKAPKGTKTNWIMHEYRLIEPSRRNGSTKLDDWVLCRIYKKQTSAQKQAYNNLMTSGREYSNNGSSTSSSSHQYDDVLESLHEIDNRSLGFAAGSSNALPHSHRPVLTNHKTGFQGLAREPSFDWANLIGQNSVPELGLSHNVPSIRYGDGGTQQQTEGIPRFNNNSDVSANQGFSVDPVNGFGYSGQQSSGFGFI | soluble
MGNLICTKNGGEPEIMVAAHMDEIGFAVKYIDDKGFIRIAPIGGWFSQIALAQRVVLYGKKKVYGVIGCKPPHLMKDEERKKGIEIKDMFVDIGASSKEEVLEMGINVGTPVALDREIVELANGRITGKAFDNRVGVAVMIEAVRRAKADITIHAVATVQEEVGLKGARTSAFAIEPTAAIAVDTCVAADFPGSESAHMDVKLGKGAAITVIDASGRGLIASPKVLRWLTETAEKYGIPYQLEVAEGGTTDATAIHLTKAGIPAGVVSVPARYIHSPVEVVDLKDVESAVEIVARAIENAKNYF | soluble
MGNTMCPKMESAFSLLGKRWNGLIIHVLMDGPKRFKEITETIPMISQKMLAERLKELEQNEIVERQVLPETPVKVIYTLTEKGTALQAVFQEMQAWADQFCEPGDTVCEEEKLEHHHHHH | soluble
MGPIVSPALHAVQASRFEDVRQARSATGTRTDEGLRRSAGGRYAGASSRGTYQSGAGRVTNPLRRSKVSESLSIHHDVGGHQFETTVDGHRAYLAYMDLGKQTLDIYRTFVPDSLRGRGIAAALTEHALQYADRMGYSVIPSCSYVERYIERRQRQADPAALEHHHHHH | soluble
MGQEYYFCRCGRSKKQPYCDGSHSGTGMKPMSFTAEKDEDAYLCQCKHTANAPFCDGTLEHHHHHH | not soluble
MGQNSSQIPEHELEHLSIESGLSRGGILKLYGRFISLATHRDKTTNEYFLTKGDFQSIAELKQNPLGDRIIDAFFADAEVLERRKVYFKDFVKVLSHFRPINKNKPHPWNSREAKLRFAFTMYDLNKSGTITKDEFQDILAMMIGVGVPKDQVNSIADRTMREADRDGDGFITFQEFCNAMEKTDIEQKMSFRFLT | not soluble
MGRGVYTLALRGLAPLIWLWMWRRARRAGGQWELFAPARFGRAGARAPAPLAAPVWVHAVSLGETRAAQPLVQALLERGLPVLLTHTTATGRAEGERLFGAAIGRGQLQQAWLPYDFPGATRRFLARHAPRCGLLIEREVWPNLLAAARAQGVPMALVSARFSASSLRQAGWLGQALREALAGLGRVLAQTDEDGARLCQAGANAYTVTGSLKFDVALPEAQLRVGHAWAGATGRPVIALASTREGEDAMFIEAIGALQAHRAATPRPLILLIPRHPQRFDEAAAQLQAAGLAYARRSAGSGEPGPHIDVLLGDTLGEMPFYYAAADVAIVGGSFARLGGQNLIEACAAGTPVIVGPHTFNFKDAARDAIAAGAALRAPDARTALDWALQLLAEPARRQAMSEAARAWTAAHAGATRRTLDALEDWLAPRLEHHHHHH | soluble
MGRKWANIVAKKTAKDGATSKIYAKFGVEIYAAAKQGEPDPELNTSLKFVIERAKQAQVPKHVIDKAIDKAKGGGDETFVQGRYEGFGPNGSMIIAETLTSNVNRTIANVRTIFNKKGGNIGAAGSVSYMFDNTGVIVFKGTDPDHIFEILLEAEVDVRDVTEEEGNIVIYTEPTDLHKGIAALKAAGITEFSTTELEMIAQSEVELSPEDLEIFEGLVDALEDDDDVQKVYHNVANL | soluble
MGRLGWVDPESFMQRNHELMDAYSAGKLAMEEFMAFSLEPMAGRTPEEVDHLVGPWVEDVIEPIIYSDACKCIAQHRAKGDRILVISASGVHLVKPIAERLGIDEVLGIELDVQHGVYSGATVGVLTYREGKITRLMEWLDAEGENLEGASFYSDSRNDLPLLLKVDHPNVVNPDPVLLEHAQQAGWPVHTWV | not soluble
MGRSSRKDEILQAALACFSEHGVDATTIEMIRDRSGASIGSLYHHFGNKERIHGELYLAGIGQYAALLEAGFARARSAEETVRLLVTSYIDWVVANPDWARFILHSRGRVEAGELGERLRADNQAHFARIHAALAGYRAEGLFREMPDDCFASVVIGPAHDLARQWLAGRTRVALADCRELLAQVAWDSVRAA | not soluble
MGSDKIHHHHHHADNPVVQTLYTTDPAPMVYNGTCYLYTGHDEDGSTWYTMKDWRCYSSTDMVNWTDNGSPLAYNTFSWAKGDAWAGQCIPRNGKFYYYVPVTQKSGGMAIGVAVSNSPTGPFVDALGHPLAYTGTGDIDPTVFIDNDGQAYLYWGNPNLYYVKLNQDMISYSGKIVQVPLTTAGFGVRKGNSSRPTLYEEGPWFYKRNGMYYMVYAAGGIPEYISYSTSKSPTGPWYYKGVIMPSQGRSFTNHPGVIDFKGNSYFFYHNGALPGGSGFTRSVCIEQFKYNADGTFPTINMTTTGVSGIGNLNPYTQNEAETICWESNVKTEKCSEGGMDVCNIQNNSWIKVKGVNFDSGAASFNARVASATNGGNIELHLDSPSGTLIGTCHVNSTGGWQSWVTNSCNVSGAKGIHDLYLKFTGGNGYLFNVNWWKFNGTKTVSTR | not soluble
MGSDKIHHHHHHAGTQTAQTQALDSDGIPTGGEWITMFDGKTLNGWRGYCRQDVPLGWVVEDGSITYKGSDNKADTGFGDLIYDKKFKNFVFEIEWKIDKAGNSGIFYTAQEIEGTPIYYSSPEYQLLDNENMPDAWEGCDGNRQAGAVYDMIMPDPQPVKPYGNWNKTRIVVYNQRVIHYMNDVKILEFQFGTPVWRALVDHSKFSKFSTSPEKCPEAYDLMLQCGKQPGYIGMQDHGYGVCFRNIRIKEL | not soluble
MGSDKIHHHHHHANNDEWVTCPPGGILAIGTMKIPNADTPRDFFIALDNGDNVLPADTADIRNRKYTVAEGQRVFVGYLQMGKEKPGYENGKIFTIEDILTKEIIPLTEATADSIGDDRINVTAHALTKDYLTIEYQYLGSMNENKKHMLNLVQNEITGPIKDDGYIYLEFRHNAFNDSPNQLGSSLVSFKLDSIAEQLATAKGIKLRVNTIYDNIQYVTIDINEDKNLKIKSFHSQ | not soluble
MGSDKIHHHHHHANNFGITYSLPKTSLVVDAEVTKVTCKAGPYYQYAEKYLGVKDAVTEDKIYFDLGKISLINRGLPDADNTYIVEFKQGTVAPYAYLTEDGLLCSINAEYTPVESELDAAKKNKGSQQKVTDTSVFSEELLMAGSTAKQAEVAAKQIYRIRESRLNILTGEADNLPPDGEAMKLVIQQLEEQEKALTNLFTGILTKETEHYEVSIIPHDNLDKEVLFRFSKQLGIVDADDLGGTPVYMNLKATERAPILDAKEAEKKDKSLKGIVYNVPGKASIEILMNKKTLYKGEAQITQFGTREGLAPVMFEDKKAPVKVLFYPETGAIKQIIQ | not soluble
MGSDKIHHHHHHAPGQTAQPGRPPTQPQGWSMTVGLAPVYGMAWQGSKDTALSIFPDLRVNYKDALFLSVPEGLGWNAVNANGWKAGPLLKARFGRNEDDGGSPFQIAGGSDALRGMGDIGIAGEAGAFVEKRFGTRQQWRARAEVRQGFGGHEGIVGDISLNWSGRTGRTILSAGPRATFASREYMQTYFGVDAVQASRTGLAASRLGGGLVSYGLGASIVQPLDRRRAVTVFGGADRLGGEPAGSSLIRERGQRTQFVVGVGYGFRFGL | not soluble
MGSDKIHHHHHHAPLPQAPIPAPSMSLPGFHAPPPSTSNGTVASGAVRTQPARMPFYVATKGKVTIYVLGTLHVGDPADYPANQPFRRPILAALAASPTLALELSPDDLLESQDDVSKYGVCNYACLPRLLPPPLWQKLANRLRGNPAALAGIRNMRPWLASLVVETYDSLSAGLQTEYGTEAQLQNVFLRKKGGKVVGLETLAEQMRAFTGLTLAQQREMLAQDMVQTPAQNAADVRALHRLWRIGDADAIAAWANAKTERLARARSIADSIDNKIVYERNRRFVARMTAIAAPNRPLFVAIGSLHLGGPKGVLELLRQQGYRVDAG | not soluble
MGSDKIHHHHHHAQIKFRNHSVSVVSLNYDASNKTMLFRQGEEMMEMTNPAQVDTVIIGKRKFVPVGRGFYEVVCRKEGVVYIDWLLKDVNIGSKGALGTVTQGSVKNLQMSDLGLNGTEMYTPYERQKIGSTEVYRRKNDNTYYIKVEGKLEKVKSLKHLEKIFIGHKDEIRKFAKDHKIDMKDILDVFSILDYCMELEQ | not soluble
MGSDKIHHHHHHAQLSDNGYANVDWQFNAPLKNHFADKASGWGMNFEGGYFVTPNLGLGLFMNYSSNHEYFPRATFPVGEGTVNTDQQHTIFQLPFGAAARYQMNRGGAWQPYFGVKLGANYAKVRSNYNMFETRDNTWGFYVSPEIGLNVYPWAYGPGLHIAVYYSYATNKANVLTYNVDKLNNFGFRVGLAF | not soluble
MGSDKIHHHHHHAQYVVTGGSGSPMKASQSSGDSAERLEVYLVYGMDNVTISYTSSSSSSHQWYRYKTKRLEAEKVASTQNGTTSTIRNVEEGYGYFVEEGAVSRYVWIVDYSKYTLNISNLHVSDNSDPCSGLVLAGTGTIQPIYYYWPNTGTRRELSRQFDVIYNTLEYNSDKKEYTSKQETAVIEGNLFGKSIPAPWCDTEICVKGDYFARHFGKEVTLCIDEYQAAAVDAHIDTLLIEQEAPNMNTTKSGYCAPATVQFSAIANTPTAALFNWKIYRQGEEDNPVVRFTGEEVDYTFNQSGTFIIKLEVSDQSTTCSTEDEVQIDISESYLMIPNAFSPGTTPGINDEFRVAYKSLVKFKAWIFNRWGLQMYYWTDPAQGWDGKKGGKYVQPGVYFYVIEAEGSDGIKYKEKGDINILRPKTIQDENENIQE | not soluble
MGSDKIHHHHHHARTILREELAQNSINKYSVKQYCQASGVGRASFYSTYNGMPDLFCNTLQFEIRKHFQNYSDCNSRKLVYALLKEIGDHRIYYTNIYRLTNKNTSKIHICHQINHAFFTEMQKHLQNSNCSNKQIQSMTNIIFSRVVSWVAHNCKEKVLDVYVDLEYVLPSN | not soluble
